These results are taken from patent US10752675B2, “Compounds for treating the remyelination blockade in diseases associated with the expression of HERV-W envelope protein” (GENEURO S.A., priority 2012, dated 2020).

Common to all, as to assay type: in vivo
Assay [1] relates to MSRV-Env induced EAE in C57BL/6 mice. Briefly: Rotarod test, Example 3.B (MSRV-Env induced EAE). The note with it: GNbAC1 500 μg/mouse given alone, all relevant speeds (16, 26, 29 rpm). The procedure: (§1) 1 day before each immunization, mice were transferred in their home cages, from the holding room to the experimental room. Mice were habituated to the experimental room for 15 min. Mice then received two trials at 10 increasing speed levels, ranging from 7 to 40 rpm. Individual delays before falling off the rotarod (for the two trials at each speed level) was recorded until 60 sec. Thus, training and performance on the Rotarod system were determined for each animal.
(§2) The ROTAROD test results are expressed as kinetics of the mean of individual scores for each group with SEM indicated by bars, for each test day and for each test speed within the discriminating range for neuromotor impairment in present conditions (16 to 29 rpm).
They are calculated for each individual mouse, for each test day and for each speed value, as the relative gain or loss of time on Rotarod (before falling), compared to the first test day at the same speed (D-7, before starting the disease induction in relevant groups). The value is calculated as “Time on Rotarod at dayX”−“Time at Day-7 for the same mouse at the same speed”. […]
(Falling from the rotarod earlier than controls is read as motor impairment.)

The test system is the same in assay [2]. Briefly: Rotarod test, Example 3.A (MSRV-Env induced EAE). Particulars: Example 3.A doses. The procedure: 9 and 8 days before immunization. Transfer of mice, in their home cages, from the holding room to the experimental room. Mice are habituated to the experimental room for 15 min. During the training period, each mouse was placed on the rotarod at a constant speed (4 rpm) if one mouse was falling, she was back on rotarod, when mice were comfortable on the rotarod, mice were running during 120 sec. All mice were returned to their cage, the speed was increased to 13 rpm and mice were again put on the rotarod for 120 sec. All mice were returned to their cage, the speed was increased to 19 rpm and mice were again put on the rotarod for 120 sec. The experimental-room environment were kept constant between test sessions with respect to temperature, and light intensity.
as §1, §2
They are calculated for each individual mouse, for each test day and for each speed value, as the relative gain or loss of time on Rotarod (before falling), compared to the first test day at the same speed (D-7, before starting the disease induction in relevant groups). The value is calculated as “Time on Rotarod at dayX”−“Time at Day-7 for the same mouse at the same speed”. Figures illustrate the kinetics for the different groups on the whole study period, for representative discriminative speed values when validated to differentiate ill from healthy animals in our conditions (e.g., too high or too low speed values either made healthy ones fall immediately or ill ones capable to sustain a slow movement).
All groups of 6 (six) mice have been first injected s.c. in the neck on day 0 then in the dorsal flanks on day 7 and 14; with 200 μg of MOG/mouse+60 μg of MSRV-Env+IFA.
For Groups G to H, the treatments with GNbAc1, L-NAME, SMT and DMF alone or together with GNbAc1 with the doses indicated below, have been initiated on day 12 post immunization when the progression of EAE clinical symptoms was already observed. GNbAc1 humanized antibody was administered once, but L-Name or SMT was administered every 4 days until termination of the study on day 29. Regarding Groups E and H, attributed for the treatment with DMF, we have previously determined the volume of daily water consumption by each mouse and it has been determined that (in our condition), each mouse consumed around 3.5 ml drinking water per day. Thus, on the basis of this measurement, a dose of 1 mg DMF+0.08% Methocel per mouse were added to 3.5 ml drinking water daily.

Assay [3] shares this test system. Briefly: EAE clinical score, Example 3.C (GNbAC1 and Sodium Fumarate). An excerpt:
Animals were weighed and clinically scored 5 days per week according to the following criteria: 0=no signs; 1=tail paralysis or hyper-reflex of hind limb(s) or unilateral hind limb weakness; 2=bilateral hind limb or forelimb weakness; 3=plus unilateral paralysis or major deficit; 4=complete hind limb or forelimb paralysis; 5=plus partial paralysis or major deficit of opposite limbs; 6=moribund or dead. These were adapted from standard criteria, in order to reflect the more rapid induction of brain and cervical cord lesions with this model.

“Also recorded” adds a separate entry of the source.

B1: GNbAC1: recombinant humanized anti-Env IgG4 monoclonal antibody comprising the CDRs of SEQ ID No. 1 to 6 (antibody, chains of the INN, looked up, V domains shown)
VH: QVQLVQSGAEVKKPGSSVKVSCKASGYTFTDYEMHWVRQAPGQGLEWIGAVAPETGGTAYNQKFKGRATITADKSTSTAYMELSSLRSEDTAVYYCTSTVVPFAYWGQGTLVTVSS
VL: QIQLTQSPSSLSASVGDRVTITCSASSSVSYMYWYQQKPGKAPKAWIYRTSNLASGVPSRFSGSGSGTDYTLTISSLQPEDFATYYCQQYQSLPLTFGGGTKVEIK
Consider B1, for which the “Rotarod, improvement of neurological deficit” value in assay [1] is reported as “significantly the most efficient product”. Also, in assay [2] (compared to untreated group A / to GNbAc1 alone), the “Rotarod scores in all conditions (16 to 29 rpm tests)” value was “greatly stabilized and/or improved scores”. Besides, in assay [2] (end of study period), the “Time on Rotarod at 23 rpm relative to Day -7” value is “recovered a score similar to control mice without disease induction”; the “Time on Rotarod at 26 rpm relative to Day -7” value is “recovered a score similar to D,G,C,E and H groups”; the “Time on Rotarod at 29 rpm relative to Day -7” value is recorded as “recovered a score similar to control mice without disease induction”. The “EAE clinical score kinetics and endpoint” value in assay [3] (from day 12: GNbAC1 500 μg IP, Sodium Fumarate 10 mg daily in 3.5 ml drinking water, versus isotype control antibody) is “significant reversion of their clinical score curves; also recorded: equivalent and significantly good recovery at the end of the study”. Further, the “day from which clinical improvement appeared” value in assay [3] (treatment started day 12) was determined as 15 days.
